Data on eight sequences can be found in the Immune Epitope Database (IEDB).

The target in one assay is HLA-A*01:01. Nature of the assay: IEDB peptide-MHC binding, purified MHC/direct/fluorescence; filed as Kd, often an IC50 or EC50 that approximates it; ≥ and ≤ were set here for values at or beyond the usual limits of such assays.
A further assay deals with HLA-A*02:01. The assay is described as above.
Another assay deals with HLA-A*03:01. Described as above.
For assay [1], the target named is HLA-A*11:01. The assay is described as above.
A further assay deals with HLA-A*29:02. The assay is described as above. Conditions: source organism: Yellow fever virus.
Assay [2] deals with HLA-A*31:01. The description is as above.
In another assay the target is HLA-A*69:01. The assay is described as above.
The target in the next assay is HLA-B*07:02. The assay is described as above.
The target of a further assay is HLA-B*15:01. The description is as above.
The target of the next assay is HLA-B*15:09. Described as above.
Assay [3] concerns the target HLA-B*18:01. Described as above.
The target in a further assay is HLA-B*27:05. The assay is described as above.
The next assay addresses HLA-B*40:01. The description is as above.
The target of a further assay is HLA-B*44:02. The assay is described as above. The settings on record: source organism: Yellow fever virus.
A further assay addresses HLA-B*46:01. Described as above.
The target of a further assay is HLA-B*48:01. Described as above.
In the next assay the target is HLA-B*57:01. The assay is described as above.
The target in a further assay is HLA-B*58:01. The description is as above.
Another assay addresses HLA-A*26:03. Described as above.
In the next assay the target is HLA-C*15:02. Described as above.
The target in a further assay is HLA-A*24:02. In words: IEDB peptide-MHC binding, purified MHC/competitive/fluorescence; filed as Kd, often an IC50 or EC50 that approximates it; ≥ and ≤ were set here for values at or beyond the usual limits of such assays. Conditions: source organism: Escherichia coli B7A.
A further assay deals with HLA-A*24:03. Nature of the assay: IEDB peptide-MHC binding, purified MHC/direct/fluorescence; filed as Kd, often an IC50 or EC50 that approximates it; ≥ and ≤ were set here for values at or beyond the usual limits of such assays.
In assay [4] the target is HLA-A*68:02. The assay is described as above. Conditions: source organism: Marburg virus - Musoke, Kenya, 1980.
Another assay concerns the target HLA-B*39:01. The description is as above.
A further assay concerns the target HLA-A*02:06. In words: IEDB peptide-MHC binding, purified MHC/competitive/fluorescence; filed as Kd, often an IC50 or EC50 that approximates it; ≥ and ≤ were set here for values at or beyond the usual limits of such assays. The settings on record: source organism: Orthomarburgvirus marburgense.
A further assay addresses HLA-A*26:02. Described as above.
The target in assay [5] is HLA-A*31:01. The assay is described as above. Conditions: source organism: Orthomarburgvirus marburgense.
In assay [6] the target is HLA-B*15:17. Described as above.
Another assay concerns the target HLA-B*08:01. In words: IEDB peptide-MHC binding, purified MHC/direct/fluorescence; filed as Kd, often an IC50 or EC50 that approximates it; ≥ and ≤ were set here for values at or beyond the usual limits of such assays. Conditions: source organism: Variola virus.
The next assay concerns the target HLA-B*08:02. The assay is described as above. The settings on record: source organism: Variola virus.
The target in assay [7] is HLA-A*11:01. In words: IEDB peptide-MHC binding, purified MHC/competitive/fluorescence; filed as Kd, often an IC50 or EC50 that approximates it; ≥ and ≤ were set here for values at or beyond the usual limits of such assays.
For assay [8], the target named is HLA-A*68:02. The description is as above. Conditions: source organism: Taterapox virus.
Assay [9] addresses HLA-B*18:01. Described as above. Conditions: source organism: Taterapox virus.
In assay [10] the target is HLA-B*15:17. Nature of the assay: IEDB peptide-MHC binding, purified MHC/direct/fluorescence; filed as Kd, often an IC50 or EC50 that approximates it; ≥ and ≤ were set here for values at or beyond the usual limits of such assays. The settings on record: source organism: Camelpox virus CMS.
Where [11] appears, read: source organism: Yellow fever virus.
Setting [12] is: source organism: Marburg virus - Musoke, Kenya, 1980.
[13] abbreviates: source organism: Ravn virus - Ravn, Kenya, 1987.
Setting [14] is: source organism: Orthomarburgvirus marburgense.
Setting [15] is: source organism: Giardia lamblia ATCC 50803.
Setting [16] is: source organism: Camelpox virus M-96.
Where [17] appears, read: source organism: Taterapox virus.
Setting [18] is: source organism: Camelpox virus CMS.

The Kd is the free concentration of one partner at which half of the binding sites on the other are occupied at equilibrium, for simple one-to-one binding. A high value points to lower affinity. FHERGYVKL: the Kd in the assay with HLA-A*01:01 (setting [11]), with HLA-A*02:01 (setting [11]), with HLA-A*03:01 (setting [11]), with HLA-A*11:01 [1] (setting [11]), in the assay with HLA-A*29:02 and with HLA-A*31:01 [2] (setting [11]) was at least 20 µM throughout. Further, the Kd was at least 20 µM with HLA-A*69:01 (setting [11]); at least 20 µM in the assay with HLA-B*07:02 (setting [11]); at least 20 µM with HLA-B*15:01 (setting [11]); 0.071 µM with HLA-B*15:09 (setting [11]); at least 20 µM with HLA-B*18:01 [3] (setting [11]); at least 20 µM with HLA-B*27:05 (setting [11]). Further, the Kd with HLA-B*40:01 (setting [11]), in the assay with HLA-B*44:02, with HLA-B*46:01 (setting [11]), with HLA-B*48:01 (setting [11]), in the assay with HLA-B*57:01 (setting [11]) and in the assay with HLA-B*58:01 (setting [11]) was at least 20 µM in each case.

In turn, FTYAPAGMY yielded a dissociation constant Kd with HLA-A*26:03 (source organism: Listeria monocytogenes serotype 4b str. H7858) of 0.114 µM.

Turning to ITPTIYLLL, the equilibrium dissociation constant (Kd) with HLA-C*15:02 (source organism: Escherichia coli B7A) worked out at 0.396 µM; with HLA-A*24:02, 0.0007 µM.

As to LFLSFCSLF, the Kd with HLA-A*01:01 (setting [12]) was at least 20 µM; with HLA-A*02:01 (setting [12]), at least 20 µM; with HLA-A*11:01 [1] (setting [12]), at least 20 µM; in the assay with HLA-A*24:03 (setting [12]), 0.245 µM; in the assay with HLA-A*26:03 (setting [13]), at least 20 µM; with HLA-A*68:02 [4], at least 20 µM. Also, the Kd in the assay with HLA-A*69:01 (setting [12]), with HLA-B*07:02 (setting [12]), in the assay with HLA-B*15:01 (setting [12]), with HLA-B*15:09 (setting [13]), with HLA-B*18:01 [3] (setting [12]) and with HLA-B*39:01 (setting [13]) was at least 20 µM in each case. Moreover, the Kd was at least 20 µM with HLA-B*57:01 (setting [12]); 1.38 µM with HLA-B*58:01 (setting [13]); at least 20 µM with HLA-A*02:06; at least 20 µM with HLA-A*26:02 (setting [14]); at least 20 µM in the assay with HLA-A*31:01 [5]; at least 20 µM with HLA-B*15:17 [6] (setting [14]).

In the case of RAIREYFQF, the Kd in the assay with HLA-B*57:01 (setting [15]) is 0.0477 µM; with HLA-B*58:01 (setting [15]) it was 0.005 µM; with HLA-C*15:02 (setting [15]), 2.13 µM.

In the case of SYVFNFHKY, the equilibrium dissociation constant (Kd) in the assay with HLA-A*01:01 (setting [16]) is at least 20 µM; in the assay with HLA-A*02:01 (setting [16]), at least 20 µM; with HLA-A*24:03 (setting [16]) it was 0.055 µM; in the assay with HLA-A*31:01 [2] (setting [16]) it was at least 20 µM; with HLA-A*69:01 (setting [16]) it was at least 20 µM; in the assay with HLA-B*07:02 (setting [16]) it was at least 20 µM. Besides, the Kd in the assay with HLA-B*08:01 was at least 20 µM; in the assay with HLA-B*08:02 it was at least 20 µM; with HLA-B*15:01 (setting [16]), at least 20 µM; with HLA-B*57:01 (setting [16]), at least 20 µM; in the assay with HLA-B*58:01 (setting [16]), at least 20 µM; in the assay with HLA-A*11:01 [7] (setting [17]), 2.55 µM. Also, the Kd was 4.09 µM in the assay with HLA-A*26:02 (setting [17]), at least 20 µM with HLA-A*68:02 [8], at least 20 µM with HLA-B*15:17 [6] (setting [17]) and at least 20 µM with HLA-B*18:01 [9].

As for VSEKYTDMY, the Kd is 0.0033 µM with HLA-A*01:01 (setting [18]); at least 20 µM with HLA-A*02:01 (setting [18]); at least 20 µM with HLA-A*03:01 (setting [18]); at least 20 µM in the assay with HLA-A*31:01 [2] (setting [18]); at least 20 µM in the assay with HLA-A*69:01 (setting [18]); at least 20 µM in the assay with HLA-B*15:01 (setting [18]). Moreover, the dissociation constant (Kd) with HLA-B*15:09 (source organism: Variola virus) was at least 20 µM; with HLA-B*15:17 [10], 0.126 µM; with HLA-B*27:05 (setting [18]), at least 20 µM; with HLA-B*39:01 (source organism: Variola virus), at least 20 µM; with HLA-B*40:01 (setting [18]) it was at least 20 µM; with HLA-B*46:01 (setting [18]), at least 20 µM. Also, the Kd with HLA-B*48:01 (setting [18]), with HLA-B*57:01 (setting [18]), with HLA-B*58:01 (setting [18]) and with HLA-A*11:01 [7] (source organism: Vaccinia virus) was at least 20 µM throughout.

Regarding VSTAIAALF, the Kd with HLA-B*58:01 (source organism: Mycobacterium tuberculosis) stood at 0.0284 µM; with HLA-C*15:02 (source organism: Mycobacterium tuberculosis H37Ra), 0.45 µM.
